Results from the supplement of paper PMC9170038.

System: K4 kissing-loop RNA reporter
Assay: apparent KD of K4 kissing-loop reporter; higher = weaker reporter binding
Conditions: Eterna round: R107
Method: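 RNA-MaP round R107: designed RNA switches with theophylline, tryptophan, arginine or FMN aptamers are transcribed on-chip within common flanks. They are titrated with a labelled K4 kissing-loop RNA reporter in RNA-MaP buffer (100 mM Tris pH 7.5, 80 mM KCl, 4 mM MgCl2), without ligand or with the indicated ligand. Median apparent KD per design.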

[1] = input ligand: theophylline 20 uM
[2] = input ligand: tryptophan 2.4 mM
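Also: bound reporter read as fluorescence of individual clusters on recovered sequencing chips by microscopy, with normalized cluster intensities fitted with a binding model.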

| Sequence | apparent KD of K4 kissing-loop reporter (input ligand: FMN 200 uM) [nM] | apparent KD of K4 kissing-loop reporter (input ligand: arginine 13.2 mM) [nM] | apparent KD of K4 kissing-loop reporter (input ligand: none) [nM] | apparent KD of K4 kissing-loop reporter [1] [nM] | apparent KD of K4 kissing-loop reporter [2] [nM] |
| --- | --- | --- | --- | --- | --- |
| UCCAAUAUUUAUUGAUCCGCCUCGCAUCAACGAGGACCGGUACGGCCGCCACUCGUGCCUAGGUAGUGAUGUUACUUAGUUUACU [theeternabot_sameState_KL_Trp_A_32] | 93.2 | 162 | 114 | 188 | 196 |
| GGUAUCCAGUACCAUUGCGUUAAAACAGAAGGAGCGAGUAUGGACUCAGGUAGGUCGCUGUUUAUAGUCGAGUGAUGUUCGAAUC [Same State Arginine A GF 15] | 237 | 280 | 281 | 316 | 222 |
| AAUAAAAUCACGGCCGCCACUGAUGCUAAUAUUAGCAGUGAUGUUGCUAUGUAUAUUUUAUUUAACAGGACCGGGUGAAUAUUUA [JR_ExcTryptoB_Sub014] | 225 | 184 | 228 | 212 | 133 |
| GGGAGGAGUGGUGUUGAUUAAGAAGCGGAAGGAGCGCCGAAGAAGGCAGGUAGGUCGCCGAAAUAUAGUGAUGUUAUAUAAAGGG [ExArg.C] | 340 | 198 | 281 | 262 | 208 |
| CGGUAGUCUAUAGGGUCCAGUGAUGUUGGACAGGAUAUGCUACGCCGCAGAAGGGUCCAACUGGUUGUGAAGUUGGCUACUAGGC [Somaaxe] | 144 | 200 | 168 | 147 | 189 |
| CAAUGAGUAUAAGAUGAUAUCAUCACAGAAGGAGCGAGUGAUAACUCAGGUAGGUCGCUGAAUUUAUCGAGUGAUGUUCGAUAGA [whbob_SS_Arginine_A_sa118] | 207 | 158 | 199 | 175 | 170 |
| UGUUUUUUUUUGAUGUUUGUUGUAAAAUGGCAGGAUAUCGUAGAGGCGAGAAGGGCUUUUAUGCGUUAUGAGUGAUGUUUGUAGG [vevvmullin] | 418 | 252 | 381 | 269 | 284 |
| AGCGGCCAGUCGGCCGCCACUCCAGGCAGUGAUGUUGCUAAGUUUCUACUAGAGUGAUGUUCUAAGAGGACCGGGACUGACGUAU [Exclusion Tryptophan B Gf 8] | 178 | 225 | 199 | 216 | 145 |
| UAAUAAUAAUGAUAAUAAUAAAGUGGUGGACGAGGACCGGUACGGCCGCCACUCGAAAAUGCAGUGAUGUUGUAAUACAAAUAAU [Exclusion - Tryptophan A (Freestyle 1)] | 110 | 203 | 137 | 200 | 86.6 |
| AGAUACUUUAUCGCUAGAGGCAUUGCAGAUACCAGCCUAUCUAGAGGCCCUUGGCAGCUGGAGUGAUGUUUCGGCUUAGCUAAAG [theeternabot_exclusion_KL_Theo_A_32] | 402 | 317 | 323 | 348 | 393 |
| AAUCAAUACAGAAGGAGCGUGACAAUUACUAUUGAUUCAGGAGCUAGUGAUGUUAGCAUUUCACAGGUAGGUCGCUGUACAUUUA [JR_SSArginiB_Sub013] | 165 | 203 | 201 | 213 | 153 |
| UGAUAGGACAGAAGGAGCGGCAGUGAUGUUGCCAAAAGGAUAAGGUGUCAAAAGACACCCUGCCAGGUAGGUCGCUGUCCUAUCU | 179 | 366 | 259 | 298 | 208 |
| ACGUAUAUCAGAGGAUAUCGUAUUAAUAUUUUAUCUAUCUAUAUAUGCAGUGAUGUUGCAAUAAUUCGAGAAGGCUGAUUUACGA [JR_ExcFMNB_Sub010] | 112 | 124 | 91.6 | 133 | 87.3 |
| AUUUGUUUAUGUGAUACCAGACUUUGCAGUGAUGUUGCAUUUAUUUUAGAAUAUAAUUUAGUCCCUUGGCAGCACUAUGUAUUUA [JR_SSTheophyB_Sub008] | 67.1 | 110 | 73.8 | 109 | 63.4 |
| GGUGCUGUCUGUGCCGCCCUCCUCGUCCCUCGAGGACCGGUACGGCCGCCACUCGAGUGAUGUUCGGGUAGCGAUCCCUGCUAGC [Bdazzled - #18 Exc. Tryptophan A] | 275 | 194 | 246 | 229 | 256 |
| AUCUAUGAGCGAGGAUAUGCAUGACGCGAGUGAUGUUCGCGAUGUGGGCGUGAUUAGUAAUAUGAAGCAGAAGGCGCACUCAUGA [Exclusion - FMW B / A] | 216 | 111 | 153 | 116 | 129 |
| CAUAGGAAACUAUGUUUCUCUCUGACUGAAGGAGCGCGUGAAAACGCAGGUAGGUCGCAGAAUUUAACAGAGAGUGAUGUUCUCA [Ex Arginine A K4 12] | 457 | 396 | 567 | 633 | 430 |
